Biological target: human recombinant Akt1-GST (not treated with H2O2) (human) (UniProt P31749)
Sequence of UniProt P31749 (P31749 whole entry): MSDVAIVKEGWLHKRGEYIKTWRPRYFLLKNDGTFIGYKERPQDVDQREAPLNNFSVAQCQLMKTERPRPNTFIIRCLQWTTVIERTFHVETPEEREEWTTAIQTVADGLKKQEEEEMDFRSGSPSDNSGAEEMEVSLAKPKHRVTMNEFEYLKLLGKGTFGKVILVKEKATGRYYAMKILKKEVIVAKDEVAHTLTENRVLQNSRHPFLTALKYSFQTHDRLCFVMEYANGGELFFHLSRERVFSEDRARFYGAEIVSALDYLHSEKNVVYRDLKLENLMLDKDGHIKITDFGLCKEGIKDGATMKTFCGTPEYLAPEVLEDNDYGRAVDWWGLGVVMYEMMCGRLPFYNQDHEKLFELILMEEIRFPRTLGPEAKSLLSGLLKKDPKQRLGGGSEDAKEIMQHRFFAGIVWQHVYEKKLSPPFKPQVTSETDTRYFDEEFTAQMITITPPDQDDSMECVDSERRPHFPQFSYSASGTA

- Akt1 activity (formation of P-GSK-3 α/β in vitro) of Akt1 immunoprecipitated from mitochondrial extracts of NIH cells treated with low to high H2O2; decreased to 45% of control at high H2O2: 150%
Substance: PDK1 (PI3K-dependent kinase 1) of NIH/3T3 mitochondrial fractions (from UniProt Q9Z2A0 1-559) (enzyme)

From publication PMC2761088
